The numbers were not newly measured in article PMC2706832, which cites them from elsewhere.

In general, Kd refers to the equilibrium constant for the complex coming apart. What is called Ki is the equilibrium dissociation constant of an inhibitor or competing ligand from its target.

For data set [1], the target named is CCL7 (Homo sapiens) (UniProt P80098).
Data set [2] has as its target CCL14 9-74 (Homo sapiens) (UniProt Q16627). Kind of data set: competition with CCL5.

Sequence of CCR1 (P32246 whole entry): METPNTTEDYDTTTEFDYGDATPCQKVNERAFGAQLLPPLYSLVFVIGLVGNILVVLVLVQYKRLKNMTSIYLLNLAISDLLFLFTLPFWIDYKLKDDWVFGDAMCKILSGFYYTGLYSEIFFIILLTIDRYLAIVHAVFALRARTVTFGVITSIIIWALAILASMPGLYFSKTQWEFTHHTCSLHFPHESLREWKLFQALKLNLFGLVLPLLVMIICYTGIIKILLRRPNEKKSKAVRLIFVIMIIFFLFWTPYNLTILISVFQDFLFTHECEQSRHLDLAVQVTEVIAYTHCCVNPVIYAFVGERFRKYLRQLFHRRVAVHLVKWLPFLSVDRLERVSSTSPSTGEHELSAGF
Sequence of CCL7 (Homo sapiens) (P80098 24-99): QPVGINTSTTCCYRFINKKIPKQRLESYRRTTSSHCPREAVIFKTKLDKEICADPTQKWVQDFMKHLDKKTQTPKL
Sequence of CCL14 9-74 (Homo sapiens) (Q16627 9-74): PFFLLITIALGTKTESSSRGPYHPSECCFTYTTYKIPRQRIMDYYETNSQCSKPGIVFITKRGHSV

Turning to CCR1 (from UniProt P32246), the Kd in data set [1] is 1 nM. Also, the Ki in data set [2] was 0.023 nM.
